# Assay results reported in US20030171559A1 (Amgen, published 2003).
# Residue numbers refer to the chain shown, from its start.
# B1: G-CSF analog Gln26->Ala26 (ligand)
# chain: MTPLGPASSLPQSFLLKCLEQVRKIAGDGAALQEKLCATYKLCHPEELVLLGHSLGIPWAPLSSCPSQALQLAGCLSQLHSGLFLYQGLLQALEGISPELGPTLDTLQLDVADFATTIWQQMEELGMAPALQPTQGAMPAFASAFQRRAGGVLVASHLQSFLEVSYRVLRHLAQP
# B2: G-CSF analog Lys41->Ala41 (ligand)
# chain: B1 chain with A26Q, K41A
# B3: G-CSF analog Glu124->Ala124 (ligand)
# chain: B1 chain with A26Q, E124A
# B4: G-CSF analog Met127,138->Leu127,138 (ligand)
# chain: B1 chain with A26Q, M127L, M138L
# B5: G-CSF analog His44->Ala44 (ligand)
# chain: B1 chain with A26Q, H44A
# B6: G-CSF analog Lys24->Ala24 (ligand)
# chain: B1 chain with K24A, A26Q
# B7: G-CSF analog Thr117->Ala117 (ligand)
# chain: B1 chain with A26Q, T117A
# B8: G-CSF analog Gln21->Ala21 (ligand)
# chain: B1 chain with Q21A, A26Q
# B9: G-CSF analog Gln174->Ala174 (ligand)
# chain: B1 chain with A26Q, Q174A
# B10: G-CSF analog Asp28->Ala28 (ligand)
# chain: B1 chain with A26Q, D28A
# B11: G-CSF analog Arg23->Ala23 (ligand)
# chain: B1 chain with R23A, A26Q
# B12: G-CSF analog Arg167->Ala167 (ligand)
# chain: B1 chain with A26Q, R167A
# B13: G-CSF analog Glu20->Ala20; Ser13->Gly13 (ligand)
# chain: B1 chain with S13G, E20A, A26Q
# B14: G-CSF analog Asp28->Ala28; Asp110->Ala110 (ligand)
# chain: B1 chain with A26Q, D28A, D110A
# B15: G-CSF analog Asp110->Ala110 (ligand)
# chain: B1 chain with A26Q, D110A
# B16: G-CSF analog Phe114->Val114, Thr117->Ala117 (ligand)
# chain: B1 chain with A26Q, F114V, T117A
# B17: G-CSF analog Ser13->Ala13 (ligand)
# chain: B1 chain with S13A, A26Q
# B18: G-CSF analog His53->Ala53 (ligand)
# chain: B1 chain with A26Q, H53A
# B19: G-CSF analog Lys17->Ala17 (ligand)
# chain: B1 chain with K17A, A26Q
# B20: G-CSF analog Arg170->Ala170 (ligand)
# chain: B1 chain with A26Q, R170A
# B21: G-CSF analog Glu47->Ala47 (ligand)
# chain: B1 chain with A26Q, E47A
# B22: G-CSF analog Gln121->Ala121 (ligand)
# chain: B1 chain with A26Q, Q121A
# B23: G-CSF analog His44->Lys44 (ligand)
# chain: B1 chain with A26Q, H44K
# B24: G-CSF analog Glu20->Ala20 (ligand)
# chain: B1 chain with E20A, A26Q
# B25: G-CSF analog Asp113->Ala113 (ligand)
# chain: B1 chain with A26Q, D113A
# Molecular target: T1, G-CSF receptor (natural G-CSF receptor, found on hematopoietic cells) (mouse (bone marrow cells of Balb C …, UniProt P40223 26-837))
# T1 sequence (looked up): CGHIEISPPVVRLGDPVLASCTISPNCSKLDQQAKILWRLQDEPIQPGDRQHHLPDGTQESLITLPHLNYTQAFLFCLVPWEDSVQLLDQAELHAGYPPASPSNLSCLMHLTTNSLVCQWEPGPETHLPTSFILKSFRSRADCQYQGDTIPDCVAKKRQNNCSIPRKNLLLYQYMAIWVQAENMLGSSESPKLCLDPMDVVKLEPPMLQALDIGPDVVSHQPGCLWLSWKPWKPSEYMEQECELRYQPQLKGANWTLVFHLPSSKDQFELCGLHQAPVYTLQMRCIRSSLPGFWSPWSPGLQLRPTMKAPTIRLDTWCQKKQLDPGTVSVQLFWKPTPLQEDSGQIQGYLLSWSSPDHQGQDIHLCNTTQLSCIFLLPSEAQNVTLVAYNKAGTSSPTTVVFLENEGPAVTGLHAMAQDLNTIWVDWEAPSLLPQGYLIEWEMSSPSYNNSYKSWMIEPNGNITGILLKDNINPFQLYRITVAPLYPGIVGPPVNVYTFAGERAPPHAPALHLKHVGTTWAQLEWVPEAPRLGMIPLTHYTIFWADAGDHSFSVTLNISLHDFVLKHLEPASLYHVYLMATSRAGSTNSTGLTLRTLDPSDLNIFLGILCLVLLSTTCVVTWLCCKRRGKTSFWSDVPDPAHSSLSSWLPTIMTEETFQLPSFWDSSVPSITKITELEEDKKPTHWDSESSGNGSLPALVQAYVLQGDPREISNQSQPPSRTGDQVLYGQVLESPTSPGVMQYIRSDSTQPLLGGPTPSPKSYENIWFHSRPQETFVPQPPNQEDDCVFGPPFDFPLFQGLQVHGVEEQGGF
# Experiment: cell-based or functional assay
row,Binder,"% Normal G-CSF Activity (3H-thymidine uptake, mouse bone marrow cells)"
1,B1,51%
2,B2,81%
3,B3,75%
4,B4,98%
5,B5,10.8%
6,B6,0%
7,B7,9.7%
8,B8,9.6%
9,B9,100%
10,B10,147%
11,B11,31%
12,B12,110%
13,B13,0%
14,B14,20.6%
15,B15,29%
16,B16,0%
17,B17,110%
18,B18,8.3%
19,B19,70%
20,B20,100%
21,B21,0%
22,B22,100%
23,B23,70%
24,B24,0%
25,B25,0%
